Data on 3 molecules can be found in PMC3081348, “Kaposi's Sarcoma-Associated Herpesvirus-Encoded LANA Down-Regulates IL-22R1 Expression through a Cis-Acting Element within the Promoter Region”.

Series [1] has as its target T1, LANA-C (C-terminus of LANA) (Kaposi's sarcoma-associated herpesvirus …, UniProt Q9QR71 918-1129). The experiment in a line: EMSA; 4 mM Mg2+, poly(dI-dC); affinity similar to LBS1; EMSA: 20 mM Tris/HCl pH 7.4, 100 mM NaCl, 4 mM MgCl2, 0.25 mM EDTA, 1 mM DTT, 0.5 ug poly(dI-dC), 10% glycerol, 100 ng labeled oligo, 0-400 ng LANA-C, 20 min at room temperature; 6.5% native PAGE on ice. The conditions noted are these: protein: recombinant; tags: His; chain copies: 2; annealed sense and antisense oligos. A general note: Mobility shift assays separate free from complexed probe on a gel.

Series [2] addresses T1, LANA-C (C-terminus of LANA). The experiment in a line: EMSA; 4 mM Mg2+, poly(dI-dC); EMSA: 20 mM Tris/HCl pH 7.4, 100 mM NaCl, 4 mM MgCl2, 0.25 mM EDTA, 1 mM DTT, 0.5 ug poly(dI-dC), 10% glycerol, 100 ng labeled oligo, 0-400 ng LANA-C, 20 min at room temperature; 6.5% native PAGE on ice. The following applies: protein: recombinant, tags: His, chain copies: 2, annealed sense and antisense oligos.

T1 sequence (Q9QR71 918-1129): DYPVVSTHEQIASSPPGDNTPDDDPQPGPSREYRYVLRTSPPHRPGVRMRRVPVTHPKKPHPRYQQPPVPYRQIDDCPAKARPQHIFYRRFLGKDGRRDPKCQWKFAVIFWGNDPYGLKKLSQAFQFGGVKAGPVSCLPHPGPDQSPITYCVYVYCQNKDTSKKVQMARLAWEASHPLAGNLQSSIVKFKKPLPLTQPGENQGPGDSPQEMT

B1: LBS-like (IL-22R1 promoter -69 to -34) (dsDNA)
DNA 1: TCCCCGCCCCATGCCCGGGTGGAGCCAGCTGCCAG
DNA 2: CTGGCAGCTGGCTCCACCCGGGCATGGGGCGGGGA
On to B1, for which, in series [1], the binding result is “binds”.

B2: mLBS-like (scrambled LBS-like) (dsDNA)
DNA 1: TCCCCACCGGCTCCGCGCGTGGAGCCAGCTGCCAG
DNA 2: CTGGCAGCTGGCTCCACGCGCGGAGCCGGTGGGGA
On to B2, for which, in series [2], the binding result is “no binding”.

B3: LBS (37 bp, TR DNA LBS1) (dsDNA)
DNA 1: GCGGAATTCGGCCCCATGCCCGGGCGGGAGGCGGGAT
DNA 2: ATCCCGCCTCCCGCCCGGGCATGGGGCCGAATTCCGC
With B3, the binding result in series [2] (label: 5'-biotin) is reported as “binds”.
